Molecular target: NFL-c-Myc (firefly, UniProt P08659 1-398 = luciferase, phosphorylated in the cells at S62 and T58 (c-Myc numbering))
Assay: cell-based or functional assay

Sequence of NFL-c-Myc (P08659 other isoform, or with tags, fused parts or gaps limits assumed): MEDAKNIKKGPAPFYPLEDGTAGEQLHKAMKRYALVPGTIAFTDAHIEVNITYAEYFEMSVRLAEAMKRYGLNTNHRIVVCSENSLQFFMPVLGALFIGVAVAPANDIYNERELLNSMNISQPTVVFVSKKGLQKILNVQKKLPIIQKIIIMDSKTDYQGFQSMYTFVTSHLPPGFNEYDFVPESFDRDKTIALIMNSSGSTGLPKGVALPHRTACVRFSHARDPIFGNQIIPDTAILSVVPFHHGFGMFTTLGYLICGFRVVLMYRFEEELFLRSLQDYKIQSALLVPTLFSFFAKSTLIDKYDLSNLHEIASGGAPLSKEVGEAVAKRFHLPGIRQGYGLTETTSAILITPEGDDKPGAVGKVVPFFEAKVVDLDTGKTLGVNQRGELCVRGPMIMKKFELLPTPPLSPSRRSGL

B1: GSK Full-CFL (other, not shown: large carriers)
chain: MSGRPRTTSFAESCKPVQQPSAFGSMKVSRDKDGSKVTTVVATPGQGPDRPQEVSYTDTKVIGNGSFGVVYQAKLCDSGELVAIKKVLQDKRFKNRELQIMRKLDHCNIVRLRYFFYSSGEKKDEVYLNLVLDYVPETVYRVARHYSRAKQTLPVIYVKLYMYQLFRSLAYIHSFGICHRDIKPQNLLLDPDTAVLKLCDFGSAKQLVRGEPNVSYICSRYYRAPELIFGATDYTSSIDVWSAGCVLAELLLGQPIFPGDSGVDQLVEIIKVLGTPTREQIREMNPNYTEFKFPQIKAHPWTKDSSGTGHFTSGVRVFRPRTPPEAIALCSRLLEYTPTARLTPLEACAHSFFDELRDPNVKLPNGRDTPALFNFTTQELSSNPPLATILIPPHARIQAAASTPTNATAASDANTGDRGQTNNAASASASNST
B1 was tested. Which “complemented FL activity (BLI, SKBR3 cells), compared with the pairing of GSK Full-CFL and NFL-SH2-SH2” value did it give?
Its value is > 10 fold.

B2: GSK 35-433-CFL (other, not shown: large carriers)
chain: SKVTTVVATPGQGPDRPQEVSYTDTKVIGNGSFGVVYQAKLCDSGELVAIKKVLQDKRFKNRELQIMRKLDHCNIVRLRYFFYSSGEKKDEVYLNLVLDYVPETVYRVARHYSRAKQTLPVIYVKLYMYQLFRSLAYIHSFGICHRDIKPQNLLLDPDTAVLKLCDFGSAKQLVRGEPNVSYICSRYYRAPELIFGATDYTSSIDVWSAGCVLAELLLGQPIFPGDSGVDQLVEIIKVLGTPTREQIREMNPNYTEFKFPQIKAHPWTKDSSGTGHFTSGVRVFRPRTPPEAIALCSRLLEYTPTARLTPLEACAHSFFDELRDPNVKLPNGRDTPALFNFTTQELSSNPPLATILIPPHARIQAAASTPTNATAASDANTGDRGQTNNAASASASNST
With B2 as the binder, how does the “complemented FL activity of SKBR3 xenografts in nude mice, normalized to hRL activity, compared with pcDNA3.1(+) vector” value read?
Its value is 10.6 fold.

Source: patent publication US20120270914A1 (Stanford University, published 2012)
